From the supplement of paper PMC10724198
± gives the standard deviation of the averaged measurements.

The sequences below were run on Saccharomyces cerevisiae (assay: protein stability index of tFT-peptide fusion (C-terminal peptide) (PSI (0-1 scale)); higher = more stable (slower turnover)). Settings: genetic background: wild type; temperature: 30 C.
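Also: PSI is a weighted mean of sequencing reads over stability bins, variants kept only with over 10 reads, mCherry proximal and sfGFP distal, peptide attached via GGGS linker.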

| Sequence | protein stability index |
| --- | --- |
| LHSRLPPCRRHV | 0.674 ± 0.021 |
| LHTLPLVLSLPA | 0.534 ± 0.025 |
| LHTSTRPLPPTS | 0.675 ± 0.067 |
| LIFLPPSPLPLS | 0.709 ± 0.085 |
| LIGICCDSGSHC | 0.691 ± 0.057 |
| LIIRTWEQILSP | 0.692 ± 0.058 |
| LILLTVGSPRSG | 0.686 ± 0.013 |
| LIPLVFAPSLVL | 0.769 ± 0.093 |
| LIQKANGRIRRG | 0.763 ± 0.02 |
| LIRRTECPRSTS | 0.6782 ± 0.0048 |
| LISLERRGVAGR | 0.657 ± 0.043 |
| LIVFSFLSCPVP | 0.5234 ± 0.0013 |
| LIVWAGACGVSR | 0.611 ± 0.014 |
| LKGVNPVNLHEL | 0.66 ± 0.039 |
| LKKSEKLSNKII | 0.644 ± 0.041 |
| LKPLRTWLSGSA | 0.719 ± 0.019 |
| LKPPEDPCASRV | 0.677 ± 0.021 |
| LKYEGPKYHMKR | 0.691 ± 0.061 |
| LLAGGDVSGVGV | 0.695 ± 0.015 |
| LLCHLSPSSSPI | 0.786 ± 0.068 |
| LLCLKIGASWSK | 0.674 ± 0.028 |
| LLCLVSCFGCWL | 0.585 ± 0.052 |
| LLDGAGGGVGEG | 0.738 ± 0.033 |
| LLDLYTLSRLDP | 0.754 ± 0.043 |
| LLDRGLLSALLA | 0.563 ± 0.034 |
| LLDTSTVTCFER | 0.741 ± 0.01 |

| Sequence | protein stability index |
| --- | --- |
| LLFPSPPLPPPL | 0.784 ± 0.15 |
| LLFSTPWVWCLL | 0.623 ± 0.051 |
| LLFTWGGRGCLG | 0.746 ± 0.032 |
| LLGRGVSLFRCG | 0.643 ± 0.3 |
| LLLASSFFTLIL | 0.687 ± 0.043 |
| LLLDIFYWTVQS | 0.615 ± 0.049 |
| LLLDRGISLLLL | 0.607 ± 0.026 |
| LLLLIPCYSPPP | 0.659 ± 0.071 |
| LLLLLPPLPFVP | 0.66 ± 0.035 |
| LLLPPRLPNISP | 0.709 ± 0.044 |
| LLLSPSRLPPAD | 0.676 ± 0.043 |
| LLLTGYGLLPST | 0.676 ± 0.079 |
| LLNAARIGNKGP | 0.663 ± 0.06 |
| LLNIPLVFFSFP | 0.58 ± 0.1 |
| LLNLLLFLLPPS | 0.636 ± 0.031 |
| LLPNLFDSQFRE | 0.756 ± 0.044 |
| LLPPPPLPPPRP | 0.67 ± 0.032 |
| LLPPPPPPSTPT | 0.798 ± 0.083 |
| LLPPPPTPDPGP | 0.645 ± 0.0067 |
| LLPPPSRTPPPS | 0.688 ± 0.02 |
| LLPPSLLSPPPF | 0.696 ± 0.094 |
| LLPRSPLLPPLH | 0.719 ± 0.0048 |
| LLPSPSYPLSPS | 0.751 ± 0.037 |
| LLPTRPAPHLSL | 0.704 ± 0.17 |
| LLRGDVVALRAH | 0.618 ± 0.052 |
| LLRLLYVGVVGR | 0.573 ± 0.027 |

| Sequence | protein stability index |
| --- | --- |
| LLRRSNLLHLVL | 0.574 ± 0.049 |
| LLRYKWSRHLVG | 0.47 ± 0.046 |
| LLSLFLLSPSVI | 0.681 ± 0.007 |
| LLSLRSPCSSSR | 0.697 ± 0.066 |
| LLSPLRPPPFAP | 0.698 ± 0.041 |
| LLSVFPLHPGSP | 0.73 ± 0.047 |
| LLVLHVFPLASH | 0.553 ± 0.035 |
| LLVLSTVFNYPI | 0.655 ± 0.071 |
| LLWPVFQCLPLL | 0.729 ± 0.045 |
| LLYPRYFSTGIT | 0.558 ± 0.065 |
| LMHDIRLCSSVV | 0.702 ± 0.074 |
| LMLSGFGSFCVA | 0.659 ± 0.025 |
| LMRFFSCTLSFE | 0.62535 ± 0.00026 |
| LMRSFLHFHLCL | 0.632 ± 0.01 |
| LMVCQKPYCMRI | 0.678 ± 0.0014 |
| LNLISGVRFSLY | 0.675 ± 0.043 |
| LNQHEQKRKNEG | 0.724 ± 0.098 |
| LNRTLCYKCILR | 0.564 ± 0.018 |
| LNSTDMNKKKFK | 0.719 ± 0.0092 |
| LPAEGSTKSRSY | 0.741 ± 0.055 |
| LPAPLLSPPRHF | 0.746 ± 0.072 |
| LPARSLPPPRPP | 0.653 ± 0.0089 |
| LPASSPTEYPPP | 0.713 ± 0.049 |
| LPFFFPPFFITR | 0.532 ± 0.013 |
| LPFLLPLVTPLP | 0.696 ± 0.068 |
| LPFPPSPPLPSP | 0.57 ± 0.0099 |

| Sequence | protein stability index |
| --- | --- |
| LPGFTLPSSPSH | 0.702 ± 0.034 |
| LPGGLSPPPFRI | 0.715 ± 0.064 |
| LPGTVELHSSRL | 0.755 ± 0.022 |
| LPHPRLPSPPGP | 0.6858 ± 0.0056 |
| LPILPSPLPPPL | 0.69 ± 0.049 |
| LPIPCPSPPPPR | 0.708 ± 0.052 |
| LPLPPRFRRLYL | 0.7 ± 0.038 |
| LPLPVLPCVPPV | 0.595 ± 0.028 |
| LPLQYPPSLLRL | 0.6655 ± 0.0065 |
| LPLRVPPPPSSH | 0.743 ± 0.085 |
| LPLSGIETSVSR | 0.683 ± 0.03 |
| LPLSSLLRPRHS | 0.684 ± 0.056 |
| LPNLCRLISFGS | 0.646 ± 0.036 |
| LPPAPLLSLPSL | 0.6921 ± 0.0034 |
| LPPCSPLIFYFH | 0.636 ± 0.032 |
| LPPHSAPLAHGP | 0.714 ± 0.065 |
| LPPLAACAPSAV | 0.615 ± 0.051 |
| LPPLAPAPPTTS | 0.617 ± 0.0065 |
| LPPLLAPPVSPL | 0.698 ± 0.039 |
| LPPPLPPATPPP | 0.675 ± 0.16 |
| LPPPPPSSSPSP | 0.7005 ± 0.0067 |
| LPPPPRPLPPSP | 0.696 ± 0.04 |
| LPPPPSFTSPHL | 0.743 ± 0.12 |
